Measured values taken from US20240174744A1 (SCIRHOM, published 2024).
Where a chain is given by its changes, count along the chain named.

T1: miR2-FL-WT-T7 (mouse iRhom2 full length wild type C-terminally tagged with 3 consecutive copies of the T7 … (mouse, UniProt Q80WQ6 1-827))
T1 construct: also called mouse iRhom2 variant expressed by MEF-DKO-miR2-FL-WT-T7 cells
T1 sequence: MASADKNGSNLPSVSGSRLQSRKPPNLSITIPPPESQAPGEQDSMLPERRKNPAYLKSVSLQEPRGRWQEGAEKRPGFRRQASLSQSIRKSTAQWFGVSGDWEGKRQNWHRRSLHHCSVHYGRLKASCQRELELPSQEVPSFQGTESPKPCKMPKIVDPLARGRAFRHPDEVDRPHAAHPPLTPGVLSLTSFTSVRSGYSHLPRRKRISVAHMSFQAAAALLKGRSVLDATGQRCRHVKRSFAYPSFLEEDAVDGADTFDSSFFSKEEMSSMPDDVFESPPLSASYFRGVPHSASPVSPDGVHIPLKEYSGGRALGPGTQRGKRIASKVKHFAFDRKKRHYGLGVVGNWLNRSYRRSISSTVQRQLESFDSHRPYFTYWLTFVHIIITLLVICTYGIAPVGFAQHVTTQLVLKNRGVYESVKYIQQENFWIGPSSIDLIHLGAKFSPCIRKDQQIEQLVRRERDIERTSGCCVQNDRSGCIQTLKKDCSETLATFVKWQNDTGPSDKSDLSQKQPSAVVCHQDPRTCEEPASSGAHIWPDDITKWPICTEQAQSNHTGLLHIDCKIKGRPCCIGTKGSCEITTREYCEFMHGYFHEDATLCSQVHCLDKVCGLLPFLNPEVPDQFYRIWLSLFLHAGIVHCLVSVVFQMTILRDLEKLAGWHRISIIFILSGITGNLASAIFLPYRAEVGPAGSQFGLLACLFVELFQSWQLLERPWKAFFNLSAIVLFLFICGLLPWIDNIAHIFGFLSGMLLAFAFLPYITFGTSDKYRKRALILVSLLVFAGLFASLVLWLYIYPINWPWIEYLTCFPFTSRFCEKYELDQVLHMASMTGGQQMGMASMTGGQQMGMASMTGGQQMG

T2: human iRhom2 (inactive rhomboid protein 2, isoform 1), endogenously expressed on human cells (human, UniProt Q6PJF5 1-856)
T2 construct: also called RHBDF2; NP_078875.4
T2 sequence: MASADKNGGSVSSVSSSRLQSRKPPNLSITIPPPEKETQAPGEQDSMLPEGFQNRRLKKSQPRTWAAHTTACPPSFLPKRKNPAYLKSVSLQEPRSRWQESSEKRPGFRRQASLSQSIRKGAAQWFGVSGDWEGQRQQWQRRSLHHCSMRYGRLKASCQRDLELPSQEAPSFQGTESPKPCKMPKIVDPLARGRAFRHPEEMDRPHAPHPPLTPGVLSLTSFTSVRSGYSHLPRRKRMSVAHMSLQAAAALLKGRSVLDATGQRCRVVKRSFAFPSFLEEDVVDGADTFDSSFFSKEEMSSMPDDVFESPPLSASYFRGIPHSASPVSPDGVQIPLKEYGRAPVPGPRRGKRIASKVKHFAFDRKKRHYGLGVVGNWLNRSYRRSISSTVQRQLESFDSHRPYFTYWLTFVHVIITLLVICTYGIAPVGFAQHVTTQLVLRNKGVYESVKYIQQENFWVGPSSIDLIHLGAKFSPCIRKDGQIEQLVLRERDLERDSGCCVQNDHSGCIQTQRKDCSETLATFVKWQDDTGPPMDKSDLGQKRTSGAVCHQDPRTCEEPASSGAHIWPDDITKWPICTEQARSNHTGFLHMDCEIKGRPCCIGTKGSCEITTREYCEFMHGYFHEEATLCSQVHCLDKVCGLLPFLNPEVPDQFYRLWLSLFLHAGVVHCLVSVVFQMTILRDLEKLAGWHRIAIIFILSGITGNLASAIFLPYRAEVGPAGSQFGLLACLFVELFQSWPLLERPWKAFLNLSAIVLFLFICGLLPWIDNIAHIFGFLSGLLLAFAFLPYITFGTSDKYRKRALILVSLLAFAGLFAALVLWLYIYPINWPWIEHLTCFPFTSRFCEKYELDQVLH

B1: antibody 16 (antibody, V domains shown)
VH: QVTLKESGPGILQPSQTLSLTCSFSGFSLSTFALGVGWIRQPSGRGLEWLAHIWWDDDKYYNPALKSRLTISKDTSKNHVFLKIANVDTADTATYYCARITTYYYGMDYWGQGTSVTVSS
VL: DIVLSQSPATLSVTPGDSVSLFCRASQSIGNHLHWYQQESHASPRLLIKYASQSISGIPSRFSGSGSGTDFTLSINSVETEDFGMYFCQQSYNWPLTFGAGTKLELK
notes: Mouse IgG, kappa light chain; also called clone #16; m16
B2: antibody 3 (antibody, V domains shown)
VH: QVTLKESGPGILQPSQTLSLTCSFSGFSLTTFAMGIGWVRQPSGKGLEWLAHIWWDGEKYNNPVLKSRLTISKDTSKNQVFLRIANVDTPDTATYYCARISSIYYIIDNWGQGTSVTVSS
VL: B1 VL with S5T, D17H, F22S, G30S, H32N, Q38K, E39K, A42E, A51V
notes: Mouse IgG, kappa light chain; also called clone #3; purified antibody 3
B3: antibody 43 (antibody, V domains shown)
VH: QVALKESGPGILQPSQTLSLTCSFSGFSLSTFGMGVGWIRQSSGKGLEWLANIWWDDDKYYNPALKSRLTISKDASKNQAFLKIANVDTADTATYYCARIGNYGSNYWYFDVWGTGTTVTVSS
VL: QIVLTQSPAIMSASPGERVTMTCSANSRISYMYWYQQKPGSSPRLLIYDTSNLASGVPVRFSGSGSGTSYSLTISRMEAEDAATYNCQQWSSYPLTFGAGTKLELK
notes: Mouse IgG, kappa light chain; also called clone #43
B4: antibody 42 (antibody, V domains shown)
VH: B3 VH with A3T, F24L, M34R, S42P, N52H, D58E, A75T, A80V, K83R, G101Q
VL: B3 VL with Q1L, R18K, S24G, N26T, Y33F, L45V, M77V, A82V, N86Y, S91N
notes: Mouse IgG, kappa light chain; also called clone #42; m42
B5: antibody 44 (antibody, V domains shown)
VH: B3 VH with A3T, S42P, G44E, N52H, A75T, A80I, A85T, D91E, A98S
VL: QIVLTQSPAVMSASPGEKVTMTCTASSSVYYMYWYQQTPGSSPRLLIYDTSNLASGVPVRFSGSGSGTSYSLTISRMEAEDAATYYCQQWNTYPLTFGAGTKLELK
notes: Mouse IgG, kappa light chain; also called clone #44; m44
B6: antibody 5 (antibody, V domains shown)
VH: B3 VH with A3T, S42P, N52H, D58E, P63S, D74A, A75T, G101S, D111N
VL: QVVLTQSPALMSASPGEKVTMTCSAGSSVSCMYWYQQKPGSSPRVLIYDTSNLASGVPARFTGSGSGTSYSLTISRMEAEDAASYYCQQWNSYPLTFGAGTKLELK
notes: Mouse IgG, kappa light chain; also called clone #5; purified antibody 5
B7: antibody 22 (antibody, V domains shown)
VH: B3 VH with A3T, S42P, N52H, D58E, P63S, D74A, A75T, A80V, G101S, D111N
VL: B6 VL with C31Y, S84T
notes: Mouse IgG, kappa light chain; also called clone #22; m22
B8: antibody 34 (antibody, V domains shown)
VH: QVTLKESGPGILQPSQTLSLTCSFSGFSLSTFSLGVGWIRQSSGKGLEWLAHIWWDDEKYYNPALKSRLTISKDTSKNQVFLKIANVDAADTATYYCARAYYSKSYYALDYWGQGTSVTVSS
VL: DIQMTQSPSSLSASLGERVSLTCRASQEISGYLSWLQQKPDGTIKRLIYAASTLDSGVPKRFSGSRSGSDYSLAISSLESEDFADYYCLQYANFPFTFGSGTKLEIK
notes: Mouse IgG, kappa light chain; also called clone #34; m34
B9: antibody 50 (antibody, V domains shown)
VH: QVQLQQSGAELVRPGASVKVSCKASGYAFSNYLIEWVKQRPGQGLEWIGVINPGSGFTKYNEKFKGKATLTADKSSSTAYMQLSSLTSEDSAVYFCARGLYRAMDYWGQGTSVTVSS
VL: DIQMTQSPASQSASLGESVTITCLASQTIGTWLAWYQQKPGKSPQLLIYAAASLADGVPSRFSGGGSGTKFSFKISSLQAEDFVNYYCQQIYSTPYTFGGGTKLEIK
notes: Mouse IgG, kappa light chain; also called clone #50; purified antibody 50
B10: antibody 48 (antibody, V domains shown)
VH: B9 VH with A9T, A16T, S30T, A79V, Q82H
VL: B9 VL with G30A, A50G, A52T, S53T, N85S, I91L
notes: Mouse IgG, kappa light chain; also called clone #48; purified antibody 48

Target: T3, mouse iR1 wild type (mouse)
T3 construct: wild type; also called mouse iRhom1 wild type; miR1-FL WT
Experiment: FACS on cells expressing mouse iR1 wild type, vs human iR2 wild type = 100%

T3 sequence (Q6PIX5 whole entry): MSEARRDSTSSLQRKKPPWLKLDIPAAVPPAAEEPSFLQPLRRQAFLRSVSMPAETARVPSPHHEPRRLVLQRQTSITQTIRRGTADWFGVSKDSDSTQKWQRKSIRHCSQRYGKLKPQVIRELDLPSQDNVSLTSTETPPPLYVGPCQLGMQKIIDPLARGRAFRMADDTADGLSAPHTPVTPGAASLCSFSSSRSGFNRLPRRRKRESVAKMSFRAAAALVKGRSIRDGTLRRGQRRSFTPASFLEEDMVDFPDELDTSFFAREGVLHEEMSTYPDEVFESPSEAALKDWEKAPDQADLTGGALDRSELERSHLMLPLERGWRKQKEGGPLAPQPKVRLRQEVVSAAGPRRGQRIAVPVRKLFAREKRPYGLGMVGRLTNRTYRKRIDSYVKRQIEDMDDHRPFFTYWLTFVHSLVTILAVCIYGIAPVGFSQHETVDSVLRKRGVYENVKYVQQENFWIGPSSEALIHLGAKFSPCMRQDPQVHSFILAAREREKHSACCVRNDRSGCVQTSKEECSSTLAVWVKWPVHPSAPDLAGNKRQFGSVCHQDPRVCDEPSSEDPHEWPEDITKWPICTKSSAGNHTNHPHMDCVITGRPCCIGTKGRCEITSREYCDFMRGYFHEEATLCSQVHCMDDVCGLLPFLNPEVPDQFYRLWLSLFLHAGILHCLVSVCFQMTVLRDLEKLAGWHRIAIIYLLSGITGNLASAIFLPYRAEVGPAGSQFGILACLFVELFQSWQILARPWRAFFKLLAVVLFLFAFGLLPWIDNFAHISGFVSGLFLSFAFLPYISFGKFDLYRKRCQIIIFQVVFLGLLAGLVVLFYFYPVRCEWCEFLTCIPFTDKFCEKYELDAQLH

| Binder | grade of loss of binding vs wild type |
| --- | --- |
| B1 | 3 grade (3 => 95% loss of binding vs wild type) |
| B2 | 3 grade (3 => 95% loss of binding vs wild type) |
| B3 | 3 grade (3 => 95% loss of binding vs wild type) |
| B4 | 3 grade (3 => 95% loss of binding vs wild type) |
| B5 | 3 grade (3 => 95% loss of binding vs wild type) |
| B6 | 3 grade (3 => 95% loss of binding vs wild type) |
| B7 | 3 grade (3 => 95% loss of binding vs wild type) |
| B8 | 3 grade (3 => 95% loss of binding vs wild type) |
| B9 | 3 grade (3 => 95% loss of binding vs wild type) |

Target: T1, miR2-FL-WT-T7 (mouse iRhom2 full length …)
Experiment: FACS on cells of the row mouse iR2 wild type

| Binder | binding result |
| --- | --- |
| B1 | no binding (tested: 3 µg/ml) |
| B3 | no binding (tested: 3 µg/ml) |
| B4 | no binding (tested: 3 µg/ml) |
| B5 | no binding (tested: 3 µg/ml) |
| B6 | no binding (tested: 3 µg/ml) |
| B7 | no binding (tested: 3 µg/ml) |
| B8 | no binding (tested: 3 µg/ml) |
| B9 | no binding (tested: 3 µg/ml) |

Target: T2, human iRhom2 (inactive rhomboid protein …)
Experiment: indirect FACS scatchard analysis on THP-1 cells (endogenous iRhom2)
Method: In brief, human THP-1 cells (American Type Culture Collection, USA) were harvested with 10 mM EDTA in PBS, washed and resuspended in FACS buffer (PBS, 3% FBS, 0.05% sodium azide), and seeded in Nunc U-bottom 96-well plates (Thermo Fisher Scientific, USA) at approximately 3×10⁵ cells per well. In order to pellet cells and remove supernatants, the plates were centrifuged at 1,500 rpm and 4° C. for 3 minutes. For primary staining, cells were resuspended in 100 μl per well of either FACS buffer alone (controls) or serial two-fold dilutions (in total 22 concentrations) of the purified antibodies 3, 5, 16, 22, 34, 42, 43, 44, 48, and 50 of the present disclosure in FACS buffer starting at 40 μg/ml and incubated on ice for 1 hour. Afterwards, plates were centrifuged at 1,500 rpm and 4° C. for 3 minutes and washed twice with 200 μl per well of FACS buffer. For secondary staining, cells were spun down and resuspended in 100 μl per well of PE-conjugated goat anti-mouse IgG F(ab′)2 detection fragment (Dianova, Germany) diluted 1:100 in FACS buffer. Protected from light, the cell suspensions were incubated on ice for 1 hour. Plates were then centrifuged at 1,500 rpm and 4° C. for 3 minutes and washed three times with 200 μl per well of FACS buffer. Finally, cells were resuspended in 150 μl per well of FACS buffer and analyzed using a BD Accuri™ C6 Plus flow cytometer (Becton Dickinson, Germany). Applying Prism8 software (GraphPad Sowtware, USA), the respective KD value for each of the antibodies of the present disclosure were calculated.

| Binder | Kd |
| --- | --- |
| B1 | 0.34 nM |
| B2 | 2.97 nM |
| B3 | 4.55 nM |
| B4 | 1.9 nM |
| B5 | 0.44 nM |
| B6 | 3.35 nM |
| B7 | 2.04 nM |
| B8 | 1.94 nM |
| B10 | 1.73 nM |
| B9 | 1.43 nM |
